Experimental data as given in article PMC4601532 (Science (New York, N.Y.), 2015).

B1: Vps34 (vacuolar protein sorting 34), subunit of complex II (enzyme)
chain: LNNITFCVSQDLDVPLKVKIKSLEGHKPLLKPSQKILNPELMLIGSNVFPSSDLIVSLQVFDKERNRNLTLPIYTPYIPFRNSRTWDYWLTLPIRIKQLTFSSHLRIILWEYNGSKQIPFFNLETSIFNLKDCTLKRGFESLKFRYDVIDHCEVVTDNKDQENLNKYFQGEFTRLPWLDEITISKLRKQRENRTWPQGTFVLNLEFPMLELPVVFIEREIMNTQMNIPTLKNNPGLSTDLREPNRNDPQIKISLGDKYHSTLKFYDPDQPNNDPIEEKYRRLERASKNANLDKQVKPDIKKRDYLNKIINYPPGTKLTAHEKGSIWKYRYYLMNNKKALTKLLQSTNLREESERVEVLELMDSWAEIDIDDALELLGSTFKNLSVRSYAVNRLKKASDKELELYLLQLVEAVCFENLSTFSDKSNSEFTIVDAVSSQKLSGDSMLLSTSHANQKLLKSISSESETSGTESLPIVISPLAEFLIRRALVNPRLGSFFYWYLKSESEDKPYLDQILSSFWSRLDKKSRNILNDQVRLINVLRECCETIKRLKDTTAKKMELLVHLLETKVRPLVKVRPIALPLDPDVLICDVCPETSKVFKSSLSPLKITFKTTLNQPYHLMFKVGDDLRQDQLVVQIISLMNELLKNENVDLKLTPYKILATGPQEGAIEFIPNDTLASILSKYHGILGYLKLHYPDENATLGVQGWVLDNFVKSCAGYCVITYILGVGDRHLDNLLVTPDGHFFHADFGYILGQDPKPFPPLMKLPPQIIEAFGGAESSNYDKFRSYCFVAYSILRRNAGLILNLFELMKTSNIPDIRIDPNGAILRVRERFNLNMSEEDATVHFQNLINDSVNALLPIVIDHLHNLAQYWRT
B2: Vps38, subunit of complex II (natural protein)
chain: MKRFLLSRRQRHLRMICFHNISLFRANGDSKLIKEYGDGFIPCFFILESIRGELLYVSEVQSGSLRKLSFQELPKLTGASTMIVLKLVGLVPSDILCTISSDKNGIIDDKWCVLCTYTIDLNKLQPINEDTVLITGTNAPVLDLIDGSYTLAAEKIKPLKGLVSSHKRNISQVKIKFSLAYSSLLKLNKLLEYSSQVHEEINEISSKIEDDFLSLKNQNHWYMRTVQKSIETLEKEVLQRKKSKKNIEMAQLESNDTINHSKTELSLMSQDESINDDYGSIYSRFVQIKDRLDQLRFKKLYQLIGIFHSTDLFNSDRGYIYFEKPSSVNDVINRLKLKPLNIEILLRQAGESTKHREYVNSQLGYYLLFLHLTAIQIFKAPLPYRLMYYGSTSVIDSQYPLYFTDQMISKHQAKLIKAIHYFNADILQFKQILENYRPT
B4: Vps30/Atg6, subunit of complex II (natural protein)
chain: MKCQTCHLPLQLDPSLEGLSLTQRNLLLSNNSIITATNENVISNKGIEAADNCGPQIPKERLRRLGEIQNIKDLNLKDDKLITDSFVFLNHDDDDNANITSNSREDQRYGNANGNDNKKANSDTSDGTSTFRDHDEEEQEATDEDENQQIQLNSKTLSTQVNAMTNVFNILSSQTNIDFPICQDCCNILINRLKSEYDDAIKERDTYAQFLSKLESQNKEISESNKEKQYSHNLSEKENLKKEEERLLDQLLRLEMTDDDLDGELVRLQEKKVQLENEKLQKLSDQNLMDLNNIQFNKNLQSLKLQYELSLNQLDKLRKINIFNATFKISHSGPFATINGLRLGSIPESVVPWKEINAALGQLILLLATINKNLKINLVDYELQPMGSFSKIKKRMVNSVEYNNSTTNAPGDWLILPVYYDENFNLGRIFRKETKFDKSLETTLEIISEITRQLSTIASSYSSQTLTTSQDESSMNNANDVENSTSILELPYIMNKDKINGLSVKLHGSSPNLEWTTAMKFLLTNVKWLLAFSSNLLSKSITLSPTVNYNDKTISGN

How the values were obtained:
[1] = target: Vps38-C2 with CC1 region (Saccharomyces cerevisiae); assay: SEC-MALS
[2] = target: B2; assay: SEC-MALS
[3] = target: B4; assay: SEC-MALS
[4] = target: T1, Vps15, subunit of complex II (Saccharomyces cerevisiae, UniProt P22219 1-1454); assay: SEC-MALS
T1 sequence: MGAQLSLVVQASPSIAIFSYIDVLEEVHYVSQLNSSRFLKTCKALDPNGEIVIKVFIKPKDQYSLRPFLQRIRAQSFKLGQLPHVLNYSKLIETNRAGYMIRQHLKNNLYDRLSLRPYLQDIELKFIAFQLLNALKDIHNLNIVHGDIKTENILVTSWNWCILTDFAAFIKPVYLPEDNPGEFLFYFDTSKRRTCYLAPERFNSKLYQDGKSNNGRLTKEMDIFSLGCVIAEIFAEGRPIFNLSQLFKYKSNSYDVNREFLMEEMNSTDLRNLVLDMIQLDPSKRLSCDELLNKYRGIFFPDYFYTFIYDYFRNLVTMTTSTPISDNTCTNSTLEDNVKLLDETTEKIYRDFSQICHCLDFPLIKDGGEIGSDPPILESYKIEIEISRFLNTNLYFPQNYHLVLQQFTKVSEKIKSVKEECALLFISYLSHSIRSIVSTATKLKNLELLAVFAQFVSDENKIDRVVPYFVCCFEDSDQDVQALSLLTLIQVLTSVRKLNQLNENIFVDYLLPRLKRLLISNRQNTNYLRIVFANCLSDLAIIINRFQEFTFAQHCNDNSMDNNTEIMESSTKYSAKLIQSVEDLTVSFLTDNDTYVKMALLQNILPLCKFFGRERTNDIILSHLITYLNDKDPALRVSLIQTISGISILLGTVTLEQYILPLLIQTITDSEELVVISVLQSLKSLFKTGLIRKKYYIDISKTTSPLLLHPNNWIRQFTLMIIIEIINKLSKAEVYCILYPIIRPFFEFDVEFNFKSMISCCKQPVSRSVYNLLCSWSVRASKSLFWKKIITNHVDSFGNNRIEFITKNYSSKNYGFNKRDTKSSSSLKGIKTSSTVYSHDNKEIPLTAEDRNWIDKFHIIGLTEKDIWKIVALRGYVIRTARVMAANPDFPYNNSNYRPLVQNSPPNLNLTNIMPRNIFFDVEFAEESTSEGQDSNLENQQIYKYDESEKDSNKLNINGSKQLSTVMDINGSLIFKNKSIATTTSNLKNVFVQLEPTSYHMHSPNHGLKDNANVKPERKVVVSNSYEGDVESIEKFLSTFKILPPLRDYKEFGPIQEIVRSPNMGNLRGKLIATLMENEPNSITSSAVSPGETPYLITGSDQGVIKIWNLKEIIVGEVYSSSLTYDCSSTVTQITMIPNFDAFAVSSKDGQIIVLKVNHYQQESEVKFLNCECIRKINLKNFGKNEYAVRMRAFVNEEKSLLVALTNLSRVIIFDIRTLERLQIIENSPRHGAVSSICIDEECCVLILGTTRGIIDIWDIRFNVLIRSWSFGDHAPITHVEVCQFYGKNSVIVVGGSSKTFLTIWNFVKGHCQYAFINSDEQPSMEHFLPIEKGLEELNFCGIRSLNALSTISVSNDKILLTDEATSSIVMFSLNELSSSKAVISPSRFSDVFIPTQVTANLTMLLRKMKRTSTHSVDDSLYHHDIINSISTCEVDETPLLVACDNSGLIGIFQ

[5] = target: B4; assay: crystal structure
[6] = target: B1; assay: crystal structure
[7] = target: Saccharomyces cerevisiae Vps15/Vps34 heterodimer (Saccharomyces cerevisiae, UniProt P22219;P22543); assay: pull-down

Which stoichiometry N [1] does the source give for “Vps30-NTD with CC1 region (domain or fragment)” here?
Its stoichiometry N is 1.

Which “stoichiometry N” value [2] does the source give for B1 here?
Its value is 1.

What about the “stoichiometry N” value [3] of the same molecule?
The value was 1.

What about the “stoichiometry N” value [4] of the same molecule?
Its value is 1.

For B2, which “stoichiometry N” value [4] is on record?
Its value is 1.

Does B2 bind [5]?
Result: binds

Does B2 bind [6]?
Result: binds

B3: Vps30/ZZ-Vps38 heterodimer held on IgG beads (complex)
chain 1: MKCQTCHLPLQLDPSLEGLSLTQRNLLLSNNSIITATNENVISNKGIEAADNCGPQIPKERLRRLGEIQNIKDLNLKDDKLITDSFVFLNHDDDDNANITSNSREDQRYGNANGNDNKKANSDTSDGTSTFRDHDEEEQEATDEDENQQIQLNSKTLSTQVNAMTNVFNILSSQTNIDFPICQDCCNILINRLKSEYDDAIKERDTYAQFLSKLESQNKEISESNKEKQYSHNLSEKENLKKEEERLLDQLLRLEMTDDDLDGELVRLQEKKVQLENEKLQKLSDQNLMDLNNIQFNKNLQSLKLQYELSLNQLDKLRKINIFNATFKISHSGPFATINGLRLGSIPESVVPWKEINAALGQLILLLATINKNLKINLVDYELQPMGSFSKIKKRMVNSVEYNNSTTNAPGDWLILPVYYDENFNLGRIFRKETKFDKSLETTLEIISEITRQLSTIASSYSSQTLTTSQDESSMNNANDVENSTSILELPYIMNKDKINGLSVKLHGSSPNLEWTTAMKFLLTNVKWLLAFSSNLLSKSITLSPTVNYNDKTISGN
chain 2: MKRFLLSRRQRHLRMICFHNISLFRANGDSKLIKEYGDGFIPCFFILESIRGELLYVSEVQSGSLRKLSFQELPKLTGASTMIVLKLVGLVPSDILCTISSDKNGIIDDKWCVLCTYTIDLNKLQPINEDTVLITGTNAPVLDLIDGSYTLAAEKIKPLKGLVSSHKRNISQVKIKFSLAYSSLLKLNKLLEYSSQVHEEINEISSKIEDDFLSLKNQNHWYMRTVQKSIETLEKEVLQRKKSKKNIEMAQLESNDTINHSKTELSLMSQDESINDDYGSIYSRFVQIKDRLDQLRFKKLYQLIGIFHSTDLFNSDRGYIYFEKPSSVNDVINRLKLKPLNIEILLRQAGESTKHREYVNSQLGYYLLFLHLTAIQIFKAPLPYRLMYYGSTSVIDSQYPLYFTDQMISKHQAKLIKAIHYFNADILQFKQILENYRPT
Does B3 bind [7]?
Result: binds

What does the source list for B4?
stoichiometry N [2]: 1; stoichiometry N [4]: 1; binding result [6]: binds
